From the supplement of paper PMC10724198
± gives the standard deviation of the averaged measurements.

System: Saccharomyces cerevisiae
Test: protein stability index of tFT-peptide fusion (C-terminal peptide) (PSI (0-1 scale)); higher = more stable (slower turnover)
Settings: genetic background: wild type; temperature: 30 C
Method: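 Multiplexed protein stability (MPS) profiling in S. cerevisiae. Random 12-aa peptides (tFT-X12 library) are fused to the C-terminus of a sfGFP-mCherry tandem fluorescent timer, after mCherry and a GGGS linker. Cells are FACS-sorted into 8 mCherry/sfGFP bins and deep-sequenced. The protein stability index (PSI) is the read-weighted bin average, scaled from 0 (unstable) to 1 (stable). Only peptides with >10 reads are reported; cells were grown at 30 °C in SC-His with glucose.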
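Also: PSI is a weighted mean of sequencing reads over stability bins, variants kept only with over 10 reads, mCherry proximal and sfGFP distal, peptide attached via GGGS linker.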

Sequence	protein stability index
NNSRTNDVRRRK	0.726 ± 0.018
YPPLTNNQINES	0.69 ± 0.015
PHLSRSVSKVLR	0.659 ± 0.066
VGGGGGGGWWHW	0.805 ± 0.011
HLGHPSSRPSCL	0.72 ± 0.057
FFCDFFYLSSHF	0.716 ± 0.019
AGSCVRLGGPEW	0.745 ± 0.052
LRSVISLSSLFS	0.686 ± 0.011
GGGGGGGGRGWG	0.63411 ± 1.7e-05
RIIRPRSTKDHP	0.745 ± 0.14
LCPGYVDSRCRG	0.6959 ± 0.0034
PPLPRPPLPTSL	0.649 ± 0.045
TAGPHPLSLPPP	0.709 ± 0.033
DVLGCHRCLGFC	0.699 ± 0.021
PPSPPPPPAAST	0.768 ± 0.13
GYADDEEEYVTL	0.737 ± 0.023
RFTNHPTRQTTG	0.676 ± 0.088
AFYVLPPSPLTR	0.665 ± 0.013
PFCCALPSPPSP	0.6145 ± 0.0055
GDNRGLTRVGIE	0.718 ± 0.053
CLVRIIRREIKG	0.575 ± 0.018
NKYEMRDDTMNI	0.681 ± 0.056
SPPPSPSPPPPL	0.739 ± 0.049
ALRLLLFISKSP	0.6119 ± 0.0013
GGWSHMHLGLDG	0.665 ± 0.024

Sequence	protein stability index
FRSTKELLQLGR	0.664 ± 0.055
GKVSVSGRELGG	0.65 ± 0.033
SDCWGAIIGCSG	0.677 ± 0.027
SGWVVECPRECW	0.719 ± 0.024
GQAPRARKTSTD	0.678 ± 0.014
PLSPTTRTRSQS	0.642 ± 0.067
RPRYITQGLPLL	0.738 ± 0.026
SRLYGHDLRCRL	0.777 ± 0.091
SNFRDISLHAAG	0.684 ± 0.042
FAFRGFLIGCGV	0.54 ± 0.011
AVKMLGRGLVLV	0.624 ± 0.032
VGVIREGKENGN	0.656 ± 0.023
PPFVLLVPTSLS	0.68 ± 0.018
KKCSNNPMTLRI	0.655 ± 0.032
GCGAVEGFGVGW	0.625 ± 0.03
HYGQRKKEFRLT	0.73 ± 0.0075
TARVPARLTHAS	0.683 ± 0.029
LPPCLEYLRVLR	0.658 ± 0.07
RVCFSLGAEFSF	0.665 ± 0.055
QSARMRRKSNLP	0.674 ± 0.028
PPLSPSLPPSPS	0.681 ± 0.0089
TLAPSKHGSNRT	0.666 ± 0.049
RVCCGVKDSEES	0.619 ± 0.0062
GHGLLYLIDLCS	0.638 ± 0.074
CMFPVSHRLLYL	0.615 ± 0.047

Sequence	protein stability index
FSHLLPAESPYP	0.654 ± 0.086
DMAPNSQKGRAL	0.668 ± 0.028
PAPLSIPSTLTT	0.609 ± 0.053
VGVGGEQISIEY	0.723 ± 0.054
GLPWRGVGGGSG	0.719 ± 0.038
PFSFSSLSASVF	0.7033 ± 0.0025
SIRQDSLMVWGG	0.666 ± 0.097
PPPPFLCSPFVA	0.6905 ± 0.00081
SISANPGAPHFP	0.666 ± 0.022
RLGARGGSRGRP	0.736 ± 0.012
TTVESYLDRRRY	0.664 ± 0.035
PPPRPPHAPFSL	0.702 ± 0.039
SPPPPPLTHSPS	0.627 ± 0.15
MHGVSSGSSLVN	0.63 ± 0.038
PRGILLATPEGH	0.684 ± 0.021
GRVRETRCISYG	0.652 ± 0.11
HPPTCTTVLPTL	0.579 ± 0.023
WGGGGGKEAVVR	0.6554 ± 0.0042
NESCRNREPGHV	0.664 ± 0.1
IPQIVRKLVPLT	0.575 ± 0.007
SAPAFPPRPPPT	0.675 ± 0.025
PPPAPLPLPAST	0.645 ± 0.019
QKNKKKKQKKEK	0.717 ± 0.05
RGRGSLPGFKSL	0.654 ± 0.058
QQCVTGKSFYGI	0.856 ± 0.14

Sequence	protein stability index
PLGGPYNSHMFT	0.956 ± 0.038
VGGWGWLPLPWC	0.678 ± 0.13
RRNGVVGRLGWV	0.7 ± 0.051
SGPSSIGSSCMS	0.663 ± 0.023
VSRVWAHFGFCG	0.707 ± 0.02
ARPPLSHPRPPL	0.788 ± 0.057
ETVNGVGSRWGF	0.741 ± 0.1
PPPPPPPHSSLS	0.709 ± 0.0078
VLMDVVGLGSSS	0.683 ± 0.019
GPCSLVSLFAGD	0.697 ± 0.017
TRRKVKYTELYQ	0.69 ± 0.041
CLICLRSRMGDC	0.642 ± 0.024
LLSPLFCYSSRS	0.6457 ± 0.0013
PPGSFWLQARVR	0.705 ± 0.071
PYSLRSTASSFP	0.63 ± 0.12
CECANLIAHFCV	0.6253 ± 0.0059
RGEVSGRVGRVG	0.684 ± 0.058
WSISKSTWGPIG	0.673 ± 0.023
KKKKKRGKTKKK	0.734 ± 0.055
GKSGGAVRGCGG	0.657 ± 0.044
CLSGLIIMPSVG	0.675 ± 0.035
GGLVVRCGVTSS	0.695 ± 0.15
TSPPPPIPLPPR	0.695 ± 0.032
PPLALLLSPVPP	0.688 ± 0.046
QFSPPLSLAPLP	0.783 ± 0.05

Sequence	protein stability index
LGVRGSMGPGGG	0.683 ± 0.082
TYVPRYPPPLFP	0.72 ± 0.061
EGGTGCLAMSVG	0.7 ± 0.012
ALPTLALPPCRS	0.73 ± 0.1
RLGFCGLGHRCE	0.677 ± 0.033
PPVLSLGPPFTS	0.73 ± 0.11
RVVHKIFGRRVT	0.6873 ± 0.0049
PPPGPRQRPPPH	0.665 ± 0.087
QLILVGYCMLSV	0.5612 ± 0.0017
DQTKMKKIAKVE	0.655 ± 0.044
GVGVWQWERGRG	0.789 ± 0.1
FPLGRCPHIPPH	0.664 ± 0.013
VIQMVIYEKDQR	0.681 ± 0.04
LTQPPPAPRVFF	0.699 ± 0.013
SGVDVPCSCHYL	0.732 ± 0.013
RLGLRWSPHSSP	0.707 ± 0.01
AVPSLYLLPFSF	0.69 ± 0.037
PLLHDSHAIIPH	0.716 ± 0.079
GVSWVGGRVFGG	0.6964 ± 0.0051
PPPLPPSPLLPP	0.701 ± 0.019
RRMSQQCLPRQR	0.739 ± 0.047
GRYRNDVAVLNF	0.683 ± 0.087
GRCLRITMACYI	0.646 ± 0.035
DVRTLGTRVMGW	0.6769 ± 0.0057
ASSLHFLYLPAL	0.709 ± 0.062

Sequence	protein stability index
GEDRLSPVGWDR	0.702 ± 0.035
SLSPGLPPVLLT	0.666 ± 0.0067
LGRKWDCLGRYV	0.637 ± 0.06
FWVASREVGRAY	0.608 ± 0.041
SIVPIIPDSVPP	0.676 ± 0.048
EGDGQVWGGQGG	0.644 ± 0.0078
LVRCGLGASVVV	0.651 ± 0.041
VRWIEYDVKGWA	0.71 ± 0.011
RGGGRGGSRTGA	0.712 ± 0.033
PFYVEAVEKPEH	0.855 ± 0.035
RARPGRACPGAP	0.755 ± 0.0097
LTLTQAPVRTDF	0.677 ± 0.018
DESRVYLSIALL	0.623 ± 0.035
PPSAPPLPPLPL	0.69 ± 0.014
MVSSIESHIVLY	0.66 ± 0.0078
GDRNNLRCWNAS	0.712 ± 0.11
FPTSRAGSLIRR	0.678 ± 0.053
LSVPWSTRPFSV	0.703 ± 0.019
NPLRTQASTTAQ	0.72 ± 0.096
GRGVGCVRRVGG	0.676 ± 0.059
LFRLRLFPHPHF	0.645 ± 0.087
LPPLLPSLSHAR	0.6459 ± 0.003
PSTPPGPPPASH	0.758 ± 0.011
PLNPSPSCPPTL	0.676 ± 0.023
GPSPFHPPPPER	0.554 ± 0.0094

Sequence	protein stability index
KWNVFRKGRGNI	0.793 ± 0.047
GTSERKVLNRKR	0.764 ± 0.015
RVLCLCATSKSR	0.672 ± 0.016
KKRNKNKKTKEE	0.68 ± 0.0099
PLPPPPAHPPPP	0.616 ± 0.03
WGVGGVLEVLLG	0.522 ± 0.022
ERRQADRHRTTP	0.766 ± 0.05
KDKRNEGSGLCK	0.645 ± 0.022
RPLPASTTLCVL	0.689 ± 0.11
NICLPLAHRTPG	0.655 ± 0.017
VLWIVDLFACEG	0.585 ± 0.0037
CYGYTESKNRLD	0.6524 ± 0.0046
RHFFRYYLDHPS	0.617 ± 0.035
GRRVQRGQARGA	0.66 ± 0.024
KKQLIPPKHHQR	0.661 ± 0.022
VQTLYSQLPALR	0.78 ± 0.069
RSSPPPRHDPSP	0.696 ± 0.088
EYGQTDENKMRM	0.687 ± 0.096
GEVGTVEGGATG	0.69596 ± 7e-05
DSSPGSHPPHRG	0.736 ± 0.053
GAVLSYIAPTPL	0.7404 ± 0.0055
CLPPPARLPAPR	0.683 ± 0.033
PPPPAPPPAPPP	0.558 ± 0.019
SVIYQMMGRIVR	0.723 ± 0.07
VGQGVPEGGGQW	0.726 ± 0.018

Sequence	protein stability index
FTSRGLLILGFM	0.619 ± 0.008
EPDISTRGPGWT	0.74 ± 0.026
PLPSLSPLPPPL	0.701 ± 0.017
VFPVGSGLWRVF	0.63 ± 0.016
HQRIKLMPEVWS	0.689 ± 0.056
WGGSSPHRTEPR	0.666 ± 0.058
PPPLRLPQSRLP	0.722 ± 0.09
LPPPPYPEFYPC	0.772 ± 0.0089
VLSFPYLSRKCI	0.546 ± 0.037
GRGPRTTKAGRG	0.7 ± 0.03
APRFDLVLPHVF	0.721 ± 0.07
GGQGRYSAPPSR	0.624 ± 0.02
DVVDGCGGRYGW	0.687 ± 0.029
SLYYPRLVSSSL	0.732 ± 0.11
PPATPPRPLLPP	0.672 ± 0.091
GCPRGGVGSRGV	0.659 ± 0.098
TLQLFPRIPSFQ	0.707 ± 0.0019
SPVSLLSFRLLL	0.573 ± 0.022
PPCPVTSFRPSI	0.755 ± 0.05
HSGAPFPPDSPR	0.783 ± 0.16
PSSPLPLSVPPL	0.655 ± 0.11
